From patent publication US6821739B2, “Methods of diagnosing and treating Crohn's disease using Pseudomonas antigens” (The Regents of the University of California, priority 2000, dated 2004) come the findings set out here.

In the experiment the test system is CD4+ T cells from C57BL/6J mice. The class given is cell-based, mouse. The conditions noted are these: 72 hours.

B1: PFTR: P. fluorescens polypeptide of 198 amino acids (SEQ ID NO: 5), similar to bacterial ferrodoxins (protein)
chain: MRTMVDSGQLTDPESARGKLLQTAAHLFRNKGFERTTVRDLASAVGIQSGSIFHHFKSKDEILRAVMEETTHYNTAMMRASLEEASTVRERVLALIRCKLQSIMGGSGEAMAVLVYEWRSLSAEGQAHVLALRDVYEQIWLQVLGEAKAAGYIRGDVFITRRFLTGALSWTTTWFRAQGSLTLEELAEEALLMVLKSD
modifications: P. fluorescens
With B1, the “stimulation of CD4+ T cell proliferation” value is reported as “strongly stimulated”.
